According to patent US20230048960A1 (University of Washington, published 2023):
Square brackets hold non-standard residues; d marks the D form. dNle = CCCC[C@@H](N)C(=O)O; Nle = CCCC[C@H](N)C(=O)O

Molecular target: Aβ42 (UniProt P05067 672-713)
Test: cell-based or functional assay

Chain of Aβ42 (P05067 672-713 limits assumed): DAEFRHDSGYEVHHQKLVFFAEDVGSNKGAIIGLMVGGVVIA

% inhibition of fibril formation (ThT), AP:Aβ42 1:1 [%]	% inhibition of fibril formation (ThT), AP:Aβ42 1:10 [%]	% inhibition of fibril formation (ThT), AP:Aβ42 1:100 [%]	Binder
92.6	78.6	38.5	Ac-RGE[dC]N[dY]F[dW]MNEYYGW[dT]M[dN]M[dR][Nle]GK-NH2 (also: disulfide-linked homodimer via Cys4) [AP531d]
85.2	68.2	51.4	Ac-RGE[dNle]N[dY]F[dW]MNEYYGW[dT]M[dN]M[dR]CGK-NH2 (also: disulfide-linked homodimer via Cys21) [AP533d]
37.2	9.1	0	Ac-RGE[dC]N[dY]F[dW]MNEYYGW[dT]M[dN]M[dR][Nle]GK-NH2 (SMILES CCCC[C@H](NC(=O)[C@@H](CCCNC(=N)N)NC(=O)[C@H](CCSC)NC(=O)[C@@H](CC(N)=O)NC(=O)[C@H](CCSC)NC(=O)[C@H](NC(=O)[C@H](Cc1c[nH]c2ccccc12)NC(=O)CNC(=O)[C@H](Cc1ccc(O)cc1)NC(=O)[C@H](Cc1ccc(O)cc1)NC(=O)[C@H](CCC(=O)O)NC(=O)[C@H](CC(N)=O)NC(=O)[C@H](CCSC)NC(=O)[C@@H](Cc1c[nH]c2ccccc12)NC(=O)[C@H](Cc1ccccc1)NC(=O)[C@@H](Cc1ccc(O)cc1)NC(=O)[C@H](CC(N)=O)NC(=O)[C@@H](CS)NC(=O)[C@H](CCC(=O)O)NC(=O)CNC(=O)[C@H](CCCNC(=N)N)NC(C)=O)[C@H](C)O)C(=O)NCC(=O)N[C@@H](CCCCN)C(N)=O) [AP531m]
100	88.6	62.4	Ac-[dR]G[dE]M[dN]L[dS]W[dM][dN][dE][dY][dS]G[dW]T[dM]N[dC]K[dM]G[dR]-NH2 (also: homodimer: D-Cys19 disulfide-bonded to D-Cys19 of other copy) [AP526d]
62.1	0	0	Ac-RGE[dM]C[dY]F[dW]MNEYYGW[dT]M[dN]M[dR][Nle]GK-NH2 (SMILES CCCC[C@H](NC(=O)[C@@H](CCCNC(=N)N)NC(=O)[C@H](CCSC)NC(=O)[C@@H](CC(N)=O)NC(=O)[C@H](CCSC)NC(=O)[C@H](NC(=O)[C@H](Cc1c[nH]c2ccccc12)NC(=O)CNC(=O)[C@H](Cc1ccc(O)cc1)NC(=O)[C@H](Cc1ccc(O)cc1)NC(=O)[C@H](CCC(=O)O)NC(=O)[C@H](CC(N)=O)NC(=O)[C@H](CCSC)NC(=O)[C@@H](Cc1c[nH]c2ccccc12)NC(=O)[C@H](Cc1ccccc1)NC(=O)[C@@H](Cc1ccc(O)cc1)NC(=O)[C@H](CS)NC(=O)[C@@H](CCSC)NC(=O)[C@H](CCC(=O)O)NC(=O)CNC(=O)[C@H](CCCNC(=N)N)NC(C)=O)[C@H](C)O)C(=O)NCC(=O)N[C@@H](CCCCN)C(N)=O) [AP532m]
100	100	72.2	Ac-RGN[dW]N[dE]S[dK]MNEYSGW[dM]L[dM]C[dT]MGR-NH2 (also: disulfide-linked homodimer via Cys19) [AP500d]
40.3	0	0	Ac-RGE[dNle]N[dY]F[dW]MNEYYGW[dT]M[dN]M[dR]CGK-NH2 (SMILES CCCC[C@@H](NC(=O)[C@H](CCC(=O)O)NC(=O)CNC(=O)[C@H](CCCNC(=N)N)NC(C)=O)C(=O)N[C@@H](CC(N)=O)C(=O)N[C@H](Cc1ccc(O)cc1)C(=O)N[C@@H](Cc1ccccc1)C(=O)N[C@H](Cc1c[nH]c2ccccc12)C(=O)N[C@@H](CCSC)C(=O)N[C@@H](CC(N)=O)C(=O)N[C@@H](CCC(=O)O)C(=O)N[C@@H](Cc1ccc(O)cc1)C(=O)N[C@@H](Cc1ccc(O)cc1)C(=O)NCC(=O)N[C@@H](Cc1c[nH]c2ccccc12)C(=O)N[C@@H](C(=O)N[C@@H](CCSC)C(=O)N[C@H](CC(N)=O)C(=O)N[C@@H](CCSC)C(=O)N[C@H](CCCNC(=N)N)C(=O)N[C@@H](CS)C(=O)NCC(=O)N[C@@H](CCCCN)C(N)=O)[C@H](C)O) [AP533m]
94.2	75.4	64.3	Ac-RGE[dM]C[dY]F[dW]MNEYYGW[dT]M[dN]M[dR][Nle]GK-NH2 (also: disulfide-linked homodimer via Cys5) [AP532d]
29.2	0	0	Ac-RGN[dW]N[dE]S[dK]MNEYYGW[dM]L[dM]C[dT]MGR-NH2 (SMILES CSCC[C@H](NC(=O)[C@@H](CCCCN)NC(=O)[C@H](CO)NC(=O)[C@@H](CCC(=O)O)NC(=O)[C@H](CC(N)=O)NC(=O)[C@@H](Cc1c[nH]c2ccccc12)NC(=O)[C@H](CC(N)=O)NC(=O)CNC(=O)[C@H](CCCNC(=N)N)NC(C)=O)C(=O)N[C@@H](CC(N)=O)C(=O)N[C@@H](CCC(=O)O)C(=O)N[C@@H](Cc1ccc(O)cc1)C(=O)N[C@@H](Cc1ccc(O)cc1)C(=O)NCC(=O)N[C@@H](Cc1c[nH]c2ccccc12)C(=O)N[C@H](CCSC)C(=O)N[C@@H](CC(C)C)C(=O)N[C@H](CCSC)C(=O)N[C@@H](CS)C(=O)N[C@@H](C(=O)N[C@@H](CCSC)C(=O)NCC(=O)N[C@@H](CCCNC(=N)N)C(N)=O)[C@H](C)O) [AP501m]
78.2	31.6	0	Ac-RGE[dC]N[dY]F[dW]MNEYYGW[dT]M[dN]M[dR]MGK-NH2 (SMILES CSCC[C@H](NC(=O)[C@@H](CCCNC(=N)N)NC(=O)[C@H](CCSC)NC(=O)[C@@H](CC(N)=O)NC(=O)[C@H](CCSC)NC(=O)[C@H](NC(=O)[C@H](Cc1c[nH]c2ccccc12)NC(=O)CNC(=O)[C@H](Cc1ccc(O)cc1)NC(=O)[C@H](Cc1ccc(O)cc1)NC(=O)[C@H](CCC(=O)O)NC(=O)[C@H](CC(N)=O)NC(=O)[C@H](CCSC)NC(=O)[C@@H](Cc1c[nH]c2ccccc12)NC(=O)[C@H](Cc1ccccc1)NC(=O)[C@@H](Cc1ccc(O)cc1)NC(=O)[C@H](CC(N)=O)NC(=O)[C@@H](CS)NC(=O)[C@H](CCC(=O)O)NC(=O)CNC(=O)[C@H](CCCNC(=N)N)NC(C)=O)[C@H](C)O)C(=O)NCC(=O)N[C@@H](CCCCN)C(N)=O) [AP530m]
